These results are taken from patent US20200325480A1 (NOGRA PHARMA, published 2020).

In the assay the target is T1, TGF-β1 R1 (mouse, UniProt Q64729 30-503).
T1 construct: Endogenous protein in total cell extracts; It is seen only as part of the 102 Kda band on the anti-Smad7 Western blot; also called TGF-β1 receptor R1
T1 sequence (looked up): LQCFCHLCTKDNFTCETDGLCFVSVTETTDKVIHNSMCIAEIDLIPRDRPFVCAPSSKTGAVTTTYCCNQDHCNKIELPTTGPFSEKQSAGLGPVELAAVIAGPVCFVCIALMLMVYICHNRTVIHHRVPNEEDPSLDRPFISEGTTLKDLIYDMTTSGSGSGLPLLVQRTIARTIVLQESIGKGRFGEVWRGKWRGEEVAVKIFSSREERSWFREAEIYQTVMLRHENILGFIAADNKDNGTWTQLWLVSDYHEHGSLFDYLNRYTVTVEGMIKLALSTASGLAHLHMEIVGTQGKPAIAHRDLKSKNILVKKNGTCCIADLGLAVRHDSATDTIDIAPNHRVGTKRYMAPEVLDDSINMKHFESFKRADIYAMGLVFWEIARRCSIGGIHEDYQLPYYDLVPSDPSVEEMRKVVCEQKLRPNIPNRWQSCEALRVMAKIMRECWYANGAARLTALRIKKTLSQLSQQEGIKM
In words: Western blot of LPMC total protein extracts with anti-Smad7 antibody (FIG. 3). (In general: Immunoblotting shows a protein as a band on a membrane.)

B1: Smad7 (other, mouse, UniProt O35253 1-426, looked up)
chain: MFRTKRSALVRRLWRSRAPGGEDEEEGVGGGGGGGELRGEGATDGRAYGAGGGGAGRAGCCLGKAVRGAKGHHHPHPPTSGAGAAGGAEADLKALTHSVLKKLKERQLELLLQAVESRGGTRTACLLLPGRLDCRLGPGAPASAQPAQPPSSYSLPLLLCKVFRWPDLRHSSEVKRLCCCESYGKINPELVCCNPHHLSRLCELESPPPPYSRYPMDFLKPTAGCPDAVPSSAETGGTNYLAPGGLSDSQLLLEPGDRSHWCVVAYWEEKTRVGRLYCVQEPSLDIFYDLPQGNGFCLGQLNSDNKSQLVQKVRSKIGCGIQLTREVDGVWVYNRSSYPIFIKSATLDNPDSRTLLVHKVFPGFSIKAFDYEKAYSLQRPNDHEFMQQPWTGFTVQISFVKGWGQCYTRQFISSCPCWLEVIFNSR
notes: Endogenous protein in total cell extracts, detected by Western blot with a rabbit anti-human Smad7 antibody; also called free Smad7 (47 Kda band)
Take B1: the binding result was “binds”.
